Experimental data taken from US20230218715A1.

How the values were obtained:
Assay in all cases: cell-based or functional assay
[1] = molecular target: S protein of SARS-CoV strain Urbani (SARS-CoV strain Urbani)
[2] = molecular target: S protein of MERS-CoV strain EMC/2012 (MERS-CoV strain EMC/2012) (UniProt K9N5Q8)
[3] = molecular target: S protein of SARS-CoV strain CuHK (SARS-CoV strain CuHK)
[4] = molecular target: S protein of SARS-CoV strain Tor-II (SARS-CoV strain Tor-II) (UniProt P59594)
[5] = molecular target: S protein of SARS-CoV-2 strain USA-WA1/2020 (SARS-CoV-2 strain USA-WA1/2020) (UniProt P0DTC2)
[6] = molecular target: S protein of HCoV strain NL63 (HCoV NL63) (UniProt Q6Q1S2)
[7] = molecular target: S protein of HCoV strain 229E (HCoV 229E) (UniProt P15423)
[8] = molecular target: S protein of HCoV strain OC43 (HCoV OC43) (UniProt P36334)
[9] = molecular target: S protein of SARS-CoV strain Frank (SARS-CoV strain Frank)

Chain of UniProt Q6Q1S2 (Q6Q1S2 19-1356): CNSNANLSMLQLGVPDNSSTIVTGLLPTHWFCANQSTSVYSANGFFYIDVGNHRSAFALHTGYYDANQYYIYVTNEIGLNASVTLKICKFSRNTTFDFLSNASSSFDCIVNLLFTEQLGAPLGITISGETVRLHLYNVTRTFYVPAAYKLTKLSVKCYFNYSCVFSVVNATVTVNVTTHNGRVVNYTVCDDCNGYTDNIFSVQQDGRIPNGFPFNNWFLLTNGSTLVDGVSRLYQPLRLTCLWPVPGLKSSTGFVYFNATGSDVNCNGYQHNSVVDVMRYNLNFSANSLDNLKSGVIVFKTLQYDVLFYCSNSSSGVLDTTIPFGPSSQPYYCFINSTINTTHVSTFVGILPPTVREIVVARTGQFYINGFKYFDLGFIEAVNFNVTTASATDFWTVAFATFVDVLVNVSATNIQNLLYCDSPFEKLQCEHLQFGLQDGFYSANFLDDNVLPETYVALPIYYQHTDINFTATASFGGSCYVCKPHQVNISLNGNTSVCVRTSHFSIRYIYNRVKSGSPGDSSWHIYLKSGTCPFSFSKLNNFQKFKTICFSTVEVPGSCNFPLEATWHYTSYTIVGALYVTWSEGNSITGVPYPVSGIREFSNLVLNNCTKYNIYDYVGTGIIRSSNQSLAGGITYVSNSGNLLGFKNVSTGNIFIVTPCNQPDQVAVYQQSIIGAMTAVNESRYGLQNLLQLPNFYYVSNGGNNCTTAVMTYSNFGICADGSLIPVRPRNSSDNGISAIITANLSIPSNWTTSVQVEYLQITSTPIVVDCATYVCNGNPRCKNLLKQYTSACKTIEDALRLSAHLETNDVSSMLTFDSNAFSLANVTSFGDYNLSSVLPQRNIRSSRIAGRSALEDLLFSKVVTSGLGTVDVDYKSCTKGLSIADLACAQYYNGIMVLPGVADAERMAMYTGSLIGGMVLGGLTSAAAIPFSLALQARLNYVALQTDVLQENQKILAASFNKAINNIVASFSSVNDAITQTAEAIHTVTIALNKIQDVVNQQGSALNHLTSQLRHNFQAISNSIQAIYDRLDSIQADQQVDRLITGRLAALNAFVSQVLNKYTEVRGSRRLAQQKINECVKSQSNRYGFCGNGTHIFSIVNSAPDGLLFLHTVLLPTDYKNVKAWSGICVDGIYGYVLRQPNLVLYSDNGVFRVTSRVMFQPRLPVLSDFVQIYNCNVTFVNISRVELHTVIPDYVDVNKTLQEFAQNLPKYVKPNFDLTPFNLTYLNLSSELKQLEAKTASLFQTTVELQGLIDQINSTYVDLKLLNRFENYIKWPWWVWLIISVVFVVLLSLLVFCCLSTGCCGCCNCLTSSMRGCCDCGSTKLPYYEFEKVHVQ
Chain of UniProt K9N5Q8 (K9N5Q8 18-1353): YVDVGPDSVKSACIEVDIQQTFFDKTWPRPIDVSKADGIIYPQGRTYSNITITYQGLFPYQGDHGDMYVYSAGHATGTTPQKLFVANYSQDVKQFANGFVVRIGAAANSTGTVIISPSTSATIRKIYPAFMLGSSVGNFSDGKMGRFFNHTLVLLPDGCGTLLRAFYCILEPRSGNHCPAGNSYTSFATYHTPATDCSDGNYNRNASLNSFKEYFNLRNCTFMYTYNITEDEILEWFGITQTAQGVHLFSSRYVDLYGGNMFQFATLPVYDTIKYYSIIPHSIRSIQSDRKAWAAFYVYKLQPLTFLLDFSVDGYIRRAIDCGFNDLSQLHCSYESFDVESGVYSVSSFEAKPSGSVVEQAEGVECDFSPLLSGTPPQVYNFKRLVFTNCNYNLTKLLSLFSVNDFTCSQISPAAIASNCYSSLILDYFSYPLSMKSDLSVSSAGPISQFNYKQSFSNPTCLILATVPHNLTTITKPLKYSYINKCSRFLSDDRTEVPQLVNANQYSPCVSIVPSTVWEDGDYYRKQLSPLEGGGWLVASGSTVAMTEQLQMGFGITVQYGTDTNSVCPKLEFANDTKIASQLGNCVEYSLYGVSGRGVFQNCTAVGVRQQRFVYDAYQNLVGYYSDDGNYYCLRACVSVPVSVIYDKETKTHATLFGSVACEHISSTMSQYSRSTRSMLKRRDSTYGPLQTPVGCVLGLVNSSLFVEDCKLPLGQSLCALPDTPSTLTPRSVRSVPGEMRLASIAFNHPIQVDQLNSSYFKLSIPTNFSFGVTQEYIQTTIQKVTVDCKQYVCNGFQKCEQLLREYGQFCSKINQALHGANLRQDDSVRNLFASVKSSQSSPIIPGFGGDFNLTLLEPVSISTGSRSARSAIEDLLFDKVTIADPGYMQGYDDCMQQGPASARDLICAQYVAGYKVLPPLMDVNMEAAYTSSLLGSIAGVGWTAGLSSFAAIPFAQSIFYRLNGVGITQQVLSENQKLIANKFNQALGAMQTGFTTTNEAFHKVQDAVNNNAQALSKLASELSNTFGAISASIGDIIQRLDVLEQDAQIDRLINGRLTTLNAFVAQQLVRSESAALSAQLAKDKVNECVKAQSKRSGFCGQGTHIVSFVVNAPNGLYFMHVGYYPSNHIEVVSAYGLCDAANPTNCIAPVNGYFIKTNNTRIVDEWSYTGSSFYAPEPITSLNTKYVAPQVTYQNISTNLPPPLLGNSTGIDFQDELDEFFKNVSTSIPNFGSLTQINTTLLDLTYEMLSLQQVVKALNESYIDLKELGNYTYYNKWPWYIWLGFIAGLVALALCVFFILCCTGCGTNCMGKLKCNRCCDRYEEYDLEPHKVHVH
Chain of UniProt P36334 (P36334 14-1353): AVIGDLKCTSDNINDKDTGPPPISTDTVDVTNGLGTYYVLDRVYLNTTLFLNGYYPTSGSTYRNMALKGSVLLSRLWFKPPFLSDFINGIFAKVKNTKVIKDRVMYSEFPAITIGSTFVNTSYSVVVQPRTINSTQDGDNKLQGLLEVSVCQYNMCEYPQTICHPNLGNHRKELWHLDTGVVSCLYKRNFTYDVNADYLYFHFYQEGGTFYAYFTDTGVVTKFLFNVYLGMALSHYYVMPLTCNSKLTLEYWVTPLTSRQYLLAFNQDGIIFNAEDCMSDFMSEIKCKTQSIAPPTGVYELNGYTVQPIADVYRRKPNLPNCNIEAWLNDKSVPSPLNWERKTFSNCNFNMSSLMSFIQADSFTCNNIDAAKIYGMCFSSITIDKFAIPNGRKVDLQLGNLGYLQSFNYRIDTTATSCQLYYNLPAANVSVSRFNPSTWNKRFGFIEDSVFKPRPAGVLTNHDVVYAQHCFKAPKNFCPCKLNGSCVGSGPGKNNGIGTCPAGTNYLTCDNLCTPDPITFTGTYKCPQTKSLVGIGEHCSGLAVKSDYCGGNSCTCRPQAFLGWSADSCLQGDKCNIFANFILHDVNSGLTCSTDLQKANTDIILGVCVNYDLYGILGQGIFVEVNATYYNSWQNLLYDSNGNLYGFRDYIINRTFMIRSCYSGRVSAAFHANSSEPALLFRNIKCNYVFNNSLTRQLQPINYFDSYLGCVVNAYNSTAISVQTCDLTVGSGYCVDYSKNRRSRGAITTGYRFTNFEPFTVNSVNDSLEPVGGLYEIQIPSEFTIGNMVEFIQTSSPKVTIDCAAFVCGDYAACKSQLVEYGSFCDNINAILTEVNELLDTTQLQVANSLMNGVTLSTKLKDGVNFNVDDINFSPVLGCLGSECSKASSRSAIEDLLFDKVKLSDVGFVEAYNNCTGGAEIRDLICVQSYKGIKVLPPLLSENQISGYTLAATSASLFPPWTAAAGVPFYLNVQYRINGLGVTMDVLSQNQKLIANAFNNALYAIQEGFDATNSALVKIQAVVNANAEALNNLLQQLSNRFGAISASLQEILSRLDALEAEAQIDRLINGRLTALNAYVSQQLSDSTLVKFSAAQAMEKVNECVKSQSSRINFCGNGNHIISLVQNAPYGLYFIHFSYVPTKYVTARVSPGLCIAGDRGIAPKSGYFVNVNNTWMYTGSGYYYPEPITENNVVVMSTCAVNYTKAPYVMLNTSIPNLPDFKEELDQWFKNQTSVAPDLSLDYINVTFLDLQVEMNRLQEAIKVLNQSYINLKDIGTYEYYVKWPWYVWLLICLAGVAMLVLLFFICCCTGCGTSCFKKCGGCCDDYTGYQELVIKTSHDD

Substance: wild-type griffithsin
- Antiviral activity EC50 [1]: 0.61 µg/mL
- Antiviral activity EC50 [2]: < 0.124 µg/mL
- Antiviral activity EC50 [3]: 0.78 µg/mL
- Antiviral activity EC50 [4]: 0.61 µg/mL
- Antiviral activity EC50 [5]: < 0.1 µg/mL
- Antiviral activity EC50 [6]: < 0.0032 µg/mL
- Antiviral activity EC50 [7]: 0.18 µg/mL
- Antiviral activity EC50 [8]: 0.16 µg/mL
- Antiviral activity EC50 [9]: 1.19 µg/mL
